How the values were obtained:
Sp1 = Sp1 (UniProt P08047); test: cell_activity; settings: luciferase induction in Drosophila cells
Sp3 = Sp3 (UniProt Q02447); test: cell_activity; settings: luciferase induction in Drosophila cells
Sequence of Sp3 (Q02447 whole entry): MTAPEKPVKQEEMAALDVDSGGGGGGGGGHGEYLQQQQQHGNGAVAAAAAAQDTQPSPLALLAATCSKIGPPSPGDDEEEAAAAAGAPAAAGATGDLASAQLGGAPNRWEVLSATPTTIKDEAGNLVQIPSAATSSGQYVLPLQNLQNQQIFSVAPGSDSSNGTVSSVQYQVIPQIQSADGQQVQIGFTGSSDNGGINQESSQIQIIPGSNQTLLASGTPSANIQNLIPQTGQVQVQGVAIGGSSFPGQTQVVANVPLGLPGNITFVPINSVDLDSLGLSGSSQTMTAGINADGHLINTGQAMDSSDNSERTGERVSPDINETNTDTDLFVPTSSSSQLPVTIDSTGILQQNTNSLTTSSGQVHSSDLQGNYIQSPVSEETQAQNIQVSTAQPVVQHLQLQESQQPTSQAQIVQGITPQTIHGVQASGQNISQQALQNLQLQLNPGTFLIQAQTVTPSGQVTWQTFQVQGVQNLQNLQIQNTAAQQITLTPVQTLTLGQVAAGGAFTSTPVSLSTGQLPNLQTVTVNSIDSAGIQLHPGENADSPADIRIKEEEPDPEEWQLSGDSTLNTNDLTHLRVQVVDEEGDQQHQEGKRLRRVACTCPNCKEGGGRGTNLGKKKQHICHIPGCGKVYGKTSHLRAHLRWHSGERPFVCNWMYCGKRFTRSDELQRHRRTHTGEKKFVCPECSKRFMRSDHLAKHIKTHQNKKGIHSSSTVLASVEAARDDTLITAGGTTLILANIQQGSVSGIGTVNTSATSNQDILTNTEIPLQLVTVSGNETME

Sequence of Sp1 (P08047 2-785): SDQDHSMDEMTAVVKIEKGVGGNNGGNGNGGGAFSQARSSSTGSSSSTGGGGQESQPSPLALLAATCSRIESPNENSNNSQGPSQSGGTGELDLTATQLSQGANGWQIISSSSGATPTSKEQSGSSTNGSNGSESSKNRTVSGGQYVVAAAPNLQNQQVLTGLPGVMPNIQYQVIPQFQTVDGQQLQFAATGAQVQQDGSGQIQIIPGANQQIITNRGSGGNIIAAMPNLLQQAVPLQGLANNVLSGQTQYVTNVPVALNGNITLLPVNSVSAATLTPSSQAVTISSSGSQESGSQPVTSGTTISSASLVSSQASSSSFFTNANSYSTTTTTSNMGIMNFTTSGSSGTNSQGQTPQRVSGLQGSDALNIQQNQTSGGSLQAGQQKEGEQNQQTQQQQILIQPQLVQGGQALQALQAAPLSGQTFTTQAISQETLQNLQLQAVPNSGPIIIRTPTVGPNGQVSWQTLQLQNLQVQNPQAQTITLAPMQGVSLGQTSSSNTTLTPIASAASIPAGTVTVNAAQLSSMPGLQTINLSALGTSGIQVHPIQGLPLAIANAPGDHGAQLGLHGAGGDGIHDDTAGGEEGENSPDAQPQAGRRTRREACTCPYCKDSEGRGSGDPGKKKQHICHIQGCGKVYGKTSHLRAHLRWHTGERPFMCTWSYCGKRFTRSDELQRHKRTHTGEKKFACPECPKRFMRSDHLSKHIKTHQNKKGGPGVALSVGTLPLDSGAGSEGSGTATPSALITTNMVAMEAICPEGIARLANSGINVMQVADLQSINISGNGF

Work on CD11c promoter -196/+30 (luc reporter) yielded an activity (Sp1) of 19.5 fold and an activity (Sp3) of 18.9 fold.

“CTGTATTGTTGTACAGAACTGCAGTTTGTTCTTTGTTATTTATTGTAAAGACAGGGTCTGGCTATGTTGCCTAGGCTGGTCTCGAACTGTTGGCCTCAAGCAATCCACCTGCCAAGCTCTGGGACCACAGGCATGAGCCATGGCATCTGATCKGTAGTTTGATCTTATTTCTTGCTGAGTAGTAGCCCATGGCATGACTTTATTATTTTGGGTGTCCATTCTCCTCTGGAGGGGCTCTGCTTTTTGAAACCACACCCTGGCCTAGCTCCCCTTCTCCCTGCCTCTCTGCAGGCTCACATCCACATGCCAAGACCTCTGCAGCCATTCTGCTTCCTGTCCTTCCACTCCTGTGGGACCTCAGAGAGCTACGGGGCTCCCTGGGTACCAACTGGCTCCTGAGGCCTGGGGGAGGGTGGTCTTCTGGGAGAAGGAAGCCAGGTCCCTGCAGGTTGTGGAGGGGGACAGAATGAGGGTTTTTCCCCAGGATGTTGTTGGCCCCTGCCCCCACTTCTGTTCCATAATTAACCACGCCCCTCCTACCCACTGTGCCCCTCTTCCTGCTGTGTGGAGGCCCTGAATCATTATTTTAACTACCCCCTGGGAGGGTGAGCACCTTCTGTGCTCTGTCCCCAACCTTCCACTTCCCCTCAACGCGCTGCTCAGGG (double strand) [CD11d promoter -591/+74 (luc reporter)]” was tested, and the activity (Sp1) was 4.1 fold.

Source: US20050266562
